Laboratory results reported in the supplement of paper PMC10126150.
± gives the standard deviation of the averaged measurements.

Tested on: ATP
Test: switch fluorescence ratio, 500 uM ATP over buffer (Cy3 cluster intensity, sum of 5 cycles each) (fold (ratio)); higher = stronger signal-on switching upon ATP binding; sequences stand for … in TCGTCGGCAGCGTCAGATGTGTATAAGAGACAGTTTTTTTTTTTTTTTTTTTTTTTTT…TC
Details: aptamer strand: ATP DNA aptamer (quencher-CACCTGGGGGAGTATTGCGGAGGAAGG + anchor), 100 nM annealed; ATP concentration: 500 uM
Procedure, shortened: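 Values give the fluorescence ratio for each switch-domain sequence, averaged from per-cluster ratios of summed target-cycle to summed buffer-cycle Cy3 intensity. The Cy3-labelled switching-strand clusters sat on a modified Illumina MiSeq flow-cell, were annealed to 100 nM quencher-labelled ATP aptamer, and were imaged in selection buffer, then after 15 min with 500 uM ATP at 22 °C. Five cycles ran with NaOH stripping and re-annealing between them, and clusters outside 100-1000 RFU were excluded.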
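Also: ATP exposure 15 min at 22 °C before imaging.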

TTCGGGGGAA
switch fluorescence ratio: 0.993 ± 0.075

TTCACCCGTC
switch fluorescence ratio: 0.971 ± 0.023

TGGTGTTGGG
switch fluorescence ratio: 0.983 ± 0.015

CAAGAGGGGT
switch fluorescence ratio: 1.01 ± 0.016

CGGTGACTCG
switch fluorescence ratio: 1.03 ± 0.029

GGATACGGTG
switch fluorescence ratio: 1.08 ± 0.061

TTTTGGTTAG
switch fluorescence ratio: 0.983 ± 0.015

GTTTGAAGCC
switch fluorescence ratio: 1.04 ± 0.078

AGAGGGCCGG
switch fluorescence ratio: 1.03 ± 0.072

GACGGGGACC
switch fluorescence ratio: 1.06 ± 0.063

TAAAAAAGAA
switch fluorescence ratio: 0.97 ± 0.03

TTTGTCATTT
switch fluorescence ratio: 0.98 ± 0.016

AGTAGCAAGC
switch fluorescence ratio: 3.3 ± 0.17

TAGAAGGGGC
switch fluorescence ratio: 0.989 ± 0.067

GGAGTTTAAA
switch fluorescence ratio: 0.999 ± 0.043

GAAAGGCAGA
switch fluorescence ratio: 1.01 ± 0.01

GTGAGTCGGG
switch fluorescence ratio: 0.987 ± 0.02

TCTGGTTGGA
switch fluorescence ratio: 1.04 ± 0.025

TACTTCTGTG
switch fluorescence ratio: 1 ± 0.018

TGTTTGGTC
switch fluorescence ratio: 0.997 ± 0.013

AGAGGCTTAC
switch fluorescence ratio: 1.04 ± 0.051

CCTGGATTTC
switch fluorescence ratio: 1.01 ± 0.077

TTTGTTAAGC
switch fluorescence ratio: 0.973 ± 0.061

TGCTCCAGTC
switch fluorescence ratio: 1.094 ± 0.0067

ACTGGGTACC
switch fluorescence ratio: 1.05 ± 0.012

GGGGGTCCGT
switch fluorescence ratio: 1 ± 0.025

CTGTATTGGG
switch fluorescence ratio: 0.977 ± 0.013

TTTCGGTTCA
switch fluorescence ratio: 1.037 ± 0.0044

GCGATTGGGT
switch fluorescence ratio: 1.01 ± 0.043

GCATGATGGC
switch fluorescence ratio: 1.03 ± 0.063

TGAAGGTTAC
switch fluorescence ratio: 1.02 ± 0.012

CGCATGATAG
switch fluorescence ratio: 1.24 ± 0.036

CGGACGGGTT
switch fluorescence ratio: 0.985 ± 0.019

CCTGGGCTGT
switch fluorescence ratio: 1.52 ± 0.48

TACTTATCTG
switch fluorescence ratio: 1.01 ± 0.019

ATGTGTAACA
switch fluorescence ratio: 0.97 ± 0.037

TAGGAAATTT
switch fluorescence ratio: 1.03 ± 0.087

GATTTAATAG
switch fluorescence ratio: 0.9625 ± 0.0076

CGAGATACTC
switch fluorescence ratio: 1.86 ± 0.17

GTAGCTATAT
switch fluorescence ratio: 4.08 ± 0.14

TGGGGCACCG
switch fluorescence ratio: 0.994 ± 0.029

TGGATTGGGC
switch fluorescence ratio: 0.973 ± 0.038

AATATTTTTT
switch fluorescence ratio: 1.01 ± 0.049

CATTGGAAGA
switch fluorescence ratio: 1.02 ± 0.015

CATTCATGGA
switch fluorescence ratio: 1.03 ± 0.035

CTGTCGTATG
switch fluorescence ratio: 0.9749 ± 0.0082

CGGAATAGGG
switch fluorescence ratio: 1.07 ± 0.052

CTGGACCGGC
switch fluorescence ratio: 0.967 ± 0.014

CGGGAAAAGA
switch fluorescence ratio: 1.58 ± 0.99

TGGGATAGGC
switch fluorescence ratio: 0.991 ± 0.032

AATGGATAAC
switch fluorescence ratio: 0.9862 ± 0.0045

CTGGAAAGGG
switch fluorescence ratio: 0.96 ± 0.019

GGTTTGAGGT
switch fluorescence ratio: 0.993 ± 0.027

AGGGGGTAGG
switch fluorescence ratio: 0.978 ± 0.022

CAAAATGTTC
switch fluorescence ratio: 1.021 ± 0.0086

ATTGGCTACT
switch fluorescence ratio: 0.987 ± 0.013

AAGCCGTTTG
switch fluorescence ratio: 1.07 ± 0.088

CATTTGGGAC
switch fluorescence ratio: 1.02 ± 0.047

TTGTACTTGG
switch fluorescence ratio: 1.04 ± 0.072

AGGGAGTGCT
switch fluorescence ratio: 1.02 ± 0.013

GGGATGGGAG
switch fluorescence ratio: 1.02 ± 0.038

TGTAAAACTA
switch fluorescence ratio: 1.02 ± 0.028

ACGCCCACGT
switch fluorescence ratio: 1.22 ± 0.038

TTCGATTTGG
switch fluorescence ratio: 1.03 ± 0.0072

GATTTGGAGC
switch fluorescence ratio: 0.9911 ± 0.0076

GAGGTGTTGA
switch fluorescence ratio: 0.9979 ± 0.003

TTTATTGTCA
switch fluorescence ratio: 0.987 ± 0.029

GGCATGAGGT
switch fluorescence ratio: 1 ± 0.016

CCTCATAGTC
switch fluorescence ratio: 1.413 ± 0.0066

TTTTGTACGC
switch fluorescence ratio: 1.097 ± 0.0065

GAAGGGGTCA
switch fluorescence ratio: 0.9904 ± 0.0089

GAAAAAGGCG
switch fluorescence ratio: 1.01 ± 0.043

GTGGGGTCGC
switch fluorescence ratio: 0.978 ± 0.012

CCAATAACGC
switch fluorescence ratio: 1.22 ± 0.074

ATTAAATCCG
switch fluorescence ratio: 1.042 ± 0.0099

TATTGTCGTT
switch fluorescence ratio: 1.02 ± 0.029

CTGGGAGCAC
switch fluorescence ratio: 1.89 ± 0.15

TTCGGTTAGC
switch fluorescence ratio: 1.05 ± 0.041

GTGGGGTAGA
switch fluorescence ratio: 1.05 ± 0.021

GTGGGGAGTG
switch fluorescence ratio: 1.01 ± 0.045

AGGGGGTAAG
switch fluorescence ratio: 0.988 ± 0.028

TTCGGGTATG
switch fluorescence ratio: 1.01 ± 0.013

TCCTGCCTTA
switch fluorescence ratio: 1.0991 ± 0.00051

TCGCAAAGGT
switch fluorescence ratio: 1.34 ± 0.036

TTAAGAGACG
switch fluorescence ratio: 1.06 ± 0.07

AGGAGGAAGG
switch fluorescence ratio: 1.05 ± 0.086

AGAGATCCGG
switch fluorescence ratio: 0.981 ± 0.018

GAGATAAGCC
switch fluorescence ratio: 1.03 ± 0.022

TCAAGAAGGT
switch fluorescence ratio: 1 ± 0.018

TTGCTGTGTG
switch fluorescence ratio: 1.011 ± 0.0042

CGGTTGGGGA
switch fluorescence ratio: 0.985 ± 0.036

ATGTTCTCTG
switch fluorescence ratio: 1.033 ± 0.0091

TGGGTAACTT
switch fluorescence ratio: 1.1 ± 0.18

CGAAAGGGCT
switch fluorescence ratio: 0.989 ± 0.036

TATAGGATT
switch fluorescence ratio: 0.986 ± 0.015

ATTACTTTTC
switch fluorescence ratio: 1.006 ± 0.0057

TAACAATTGT
switch fluorescence ratio: 1.12 ± 0.18

GGGGGGCATT
switch fluorescence ratio: 0.99 ± 0.033

TAGCATTCTA
switch fluorescence ratio: 1.013 ± 0.0054

TAATATTTT
switch fluorescence ratio: 0.966 ± 0.035

ACTCTAAAAA
switch fluorescence ratio: 1.05 ± 0.012

TTCGGGAGGT
switch fluorescence ratio: 1.05 ± 0.13

TTCAGGGCTT
switch fluorescence ratio: 0.986 ± 0.036

ACCGGGAAAG
switch fluorescence ratio: 1.062 ± 0.0096

TTAATAACTT
switch fluorescence ratio: 1.01 ± 0.019

AAAAATGGGT
switch fluorescence ratio: 1 ± 0.016

TTATTGAATT
switch fluorescence ratio: 0.998 ± 0.045

ATGCATAGGC
switch fluorescence ratio: 0.983 ± 0.011

GGGCAAGTGT
switch fluorescence ratio: 1.06 ± 0.034

CGTGAGGTGA
switch fluorescence ratio: 1.01 ± 0.035

CGAAGACCAG
switch fluorescence ratio: 1.05 ± 0.081

TTAGAGGGTT
switch fluorescence ratio: 1.01 ± 0.031

GCCCGGGGTA
switch fluorescence ratio: 1.09 ± 0.12

AATGATATGA
switch fluorescence ratio: 1.02 ± 0.05

TATCCGGAAT
switch fluorescence ratio: 1.79 ± 0.76

TGGGGAGGGG
switch fluorescence ratio: 0.991 ± 0.047

TTGTCATTGG
switch fluorescence ratio: 0.992 ± 0.019

TTAGAAAGGA
switch fluorescence ratio: 1.01 ± 0.025

AGATCGAACT
switch fluorescence ratio: 0.994 ± 0.019

GGTTTACGGA
switch fluorescence ratio: 0.964 ± 0.01

ACTCTGGGGG
switch fluorescence ratio: 1.07 ± 0.092

TGAGAGTAT
switch fluorescence ratio: 1.01 ± 0.034

GATCCTGGGT
switch fluorescence ratio: 0.974 ± 0.034

ATTCTCCGGG
switch fluorescence ratio: 1.18 ± 0.065

TTTTTCCTGT
switch fluorescence ratio: 1.01 ± 0.011

GAGTAGGACC
switch fluorescence ratio: 1.03 ± 0.016

GGAGGTCTAC
switch fluorescence ratio: 1.03 ± 0.014

ACGTTTGCG
switch fluorescence ratio: 0.98 ± 0.04

TTCGGTTGTA
switch fluorescence ratio: 1.009 ± 0.0067

TCCTTTAATC
switch fluorescence ratio: 1.98 ± 1.4

AAAATATGGT
switch fluorescence ratio: 1.01 ± 0.033

TTTGAGGACT
switch fluorescence ratio: 0.992 ± 0.025

TTTTTAGAAG
switch fluorescence ratio: 0.985 ± 0.01

CGTCCGAAGG
switch fluorescence ratio: 1.03 ± 0.041

TGACTCACGG
switch fluorescence ratio: 1.08 ± 0.029

AGGACGGGGG
switch fluorescence ratio: 1.02 ± 0.033

ATCTTAGTTT
switch fluorescence ratio: 1 ± 0.025

ATTAGGCGTG
switch fluorescence ratio: 0.987 ± 0.01

CCGTACGTTT
switch fluorescence ratio: 1.24 ± 0.024

ACACTTAGCT
switch fluorescence ratio: 1.07 ± 0.025

GTGCATGTGG
switch fluorescence ratio: 0.9701 ± 0.0056

GGGGTATATC
switch fluorescence ratio: 1 ± 0.024

CAGATTGATG
switch fluorescence ratio: 0.983 ± 0.043

TCTTGATGGA
switch fluorescence ratio: 0.9597 ± 0.0014

ATAAGCATGT
switch fluorescence ratio: 1.02 ± 0.034

TTGGGATTGG
switch fluorescence ratio: 0.968 ± 0.018

GAGAGTTGCG
switch fluorescence ratio: 1.04 ± 0.027

CTAATTGTAG
switch fluorescence ratio: 0.9884 ± 0.0029

TACGTATTCC
switch fluorescence ratio: 1.171 ± 0.011

CATTCTTTGG
switch fluorescence ratio: 0.9836 ± 0.0041

GGACTTTCGT
switch fluorescence ratio: 0.993 ± 0.015

GGTTTTGAAG
switch fluorescence ratio: 0.9959 ± 0.0063

AGGCCGGAAG
switch fluorescence ratio: 0.9945 ± 0.0095
